Paper PMC4553094 (Thrombosis research, 2015)
Blank lines part the entries; values can stand above or below the molecule they belong to.

Legend:
[1] = target: Glycoprotein Ib-IX complex captured from platelet lysates (human (endogenous in platelets)) (UniProt P07359); assay: biomembrane force probe
[2] = target: T1, Human placenta type III collagen (human, UniProt P02461 154-1221, covalently modified with maleimide-PEG3500-NHS for coupling to beads); assay: biomembrane force probe
T1 sequence (looked up): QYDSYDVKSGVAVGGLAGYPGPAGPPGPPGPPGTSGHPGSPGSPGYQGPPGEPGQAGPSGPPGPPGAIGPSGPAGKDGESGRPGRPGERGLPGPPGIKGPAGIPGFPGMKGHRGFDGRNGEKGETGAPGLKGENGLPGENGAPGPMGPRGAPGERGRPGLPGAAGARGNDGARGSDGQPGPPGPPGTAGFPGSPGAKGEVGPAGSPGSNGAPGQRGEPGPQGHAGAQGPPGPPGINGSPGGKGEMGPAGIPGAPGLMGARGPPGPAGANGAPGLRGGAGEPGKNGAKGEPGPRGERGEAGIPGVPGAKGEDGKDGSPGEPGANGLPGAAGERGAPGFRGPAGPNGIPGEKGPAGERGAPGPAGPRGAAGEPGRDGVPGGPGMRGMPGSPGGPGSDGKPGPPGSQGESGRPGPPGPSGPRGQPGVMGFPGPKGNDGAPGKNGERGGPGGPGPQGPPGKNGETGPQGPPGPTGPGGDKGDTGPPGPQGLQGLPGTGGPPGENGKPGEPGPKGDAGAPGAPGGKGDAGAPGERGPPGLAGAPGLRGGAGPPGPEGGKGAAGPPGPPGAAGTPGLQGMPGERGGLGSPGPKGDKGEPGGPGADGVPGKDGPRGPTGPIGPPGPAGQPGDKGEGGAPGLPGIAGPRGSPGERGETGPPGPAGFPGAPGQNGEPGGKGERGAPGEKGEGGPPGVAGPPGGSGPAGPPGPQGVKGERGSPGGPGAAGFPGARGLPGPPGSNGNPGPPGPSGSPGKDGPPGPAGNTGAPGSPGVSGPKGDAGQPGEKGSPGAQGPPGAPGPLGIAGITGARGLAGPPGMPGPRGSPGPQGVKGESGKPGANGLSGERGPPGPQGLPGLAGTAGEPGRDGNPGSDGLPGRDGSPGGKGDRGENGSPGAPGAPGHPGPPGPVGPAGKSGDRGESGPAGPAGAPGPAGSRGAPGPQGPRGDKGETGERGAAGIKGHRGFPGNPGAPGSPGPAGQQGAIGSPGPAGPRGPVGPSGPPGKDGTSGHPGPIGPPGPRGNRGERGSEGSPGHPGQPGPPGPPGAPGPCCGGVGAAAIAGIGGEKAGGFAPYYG

bond lifetime at the peak force [1]: 3.1 s
Molecule: Plasma von Willebrand factor (from UniProt P04275 764-2813) (natural protein)

bond lifetime at the peak force [1]: 1.5 s
Molecule: Recombinant wild-type monomeric VWF 1238-A1 (residues 1238-1471) (from UniProt P04275 1238-1471) (domain or fragment)

affinity to collagen relative to that of A1 [2]: 10 times
B1: Recombinant wild-type monomeric VWF A3 domain (residues 1687-1874) (domain or fragment)
chain: SQPLDVILLLDGSSSFPASYFDEMKSFAKAFISKANIGPRLTQVSVLQYGSITTIDVPWNVVPEKAHLLSLVDVMQREGGPSQIGDALGFAVRYLTSEMHGARPGASKAVVILVTDVSVDSVDAAADAARSNRVTVFPIGIGDRYDAAQLRILAGPAGDSNVVKLQRIEDLPTMVTLGNSFLHKLCSG
